Tests used:
[1] = system: HeLa Kyoto; test: solubility in G1/S (NP-40 vs SDS abundance) (log2 ratio); higher = more soluble; conditions: cell cycle stage: G1/S
[2] = system: HeLa Kyoto; test: melting temperature (median over replicates), in situ; higher = more thermally stable
[3] = system: HeLa Kyoto; test: solubility change mitosis vs G1/S (difference of NP-40 vs SDS log2 ratios) (log2 ratio difference); higher = more soluble in mitosis
[4] = system: HeLa Kyoto; test: thermal stability score vs G1/S (z-score of summed log2 fold changes over temperatures); higher = more thermally stable than in G1/S
[5] = cell cycle stage: early G1 (4.5 h after nocodazole release)
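Wherever melting temperature (median over replicates), in situ is given: HeLa Kyoto cells synchronized by double thymidine or nocodazole block, proteins quantified by TMT10plex mass spectrometry, three independent biological replicates.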
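Wherever solubility change mitosis vs G1/S (difference of NP-40 vs SDS log2 ratios) is given: synchronized HeLa Kyoto cells (double thymidine block for G1/S, nocodazole release for mitosis), protein amounts in NP-40 versus SDS lysates quantified by mass spectrometry, three biological replicates.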
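Wherever solubility in G1/S (NP-40 vs SDS abundance) is given: HeLa Kyoto cells arrested at G1/S by double thymidine block, proteins quantified by TMT10plex mass spectrometry in mild NP-40 versus SDS extracts, three biological replicates.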
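Wherever thermal stability score vs G1/S (z-score of summed log2 fold changes over temperatures) is given: synchronized HeLa Kyoto cells, proteins quantified by TMT10plex mass spectrometry, three biological replicates, mitosis taken 0.5 h after nocodazole release, G1/S directly after double thymidine block.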

MSAGEVERLVSELSGGTGGDEEEEWLYGGPWDVHVHSDLAKDLDENEVERPEEENASANPPSGIEDETAENGVPKPKVTETEDDSDSDSDDDEDDVHVTIGDIKTGAPQYGSYGTAPVNLNIKTGGRVYGTTGTKVKGVDLDAPGSINGVPLLEVDLDSFEDKPWRKPGADLSDYFNYGFNEDTWKAYCEKQKRIRMGLEVIPVTSTTNKITAEDCTMEVTPGAEIQDGRFNLFKVQQGRTGNSEKETALPSTKAEFTSPPSLFKTGLPPSRNSTSSQSQTSTASRKANSSVGKWQDRYGRAESPDLRRLPGAIDVIGQTITISRVEGRRRANENSNIQVLSERSATEVDNNFSKPPPFFPPGAPPTHLPPPPFLPPPPTVSTAPPLIPPPGFPPPPGAPPPSLIPTIESGHSSGYDSRSARAFPYGNVAFPHLPGSAPSWPSLVDTSKQWDYYARREKDRDRERDRDRERDRDRDRERERTRERERERDHSPTPSVFNSDEERYRYREYAERGYERHRASREKEERHRERRHREKEETRHKSSRSNSRRRHESEEGDSHRRHKHKKSKRSKEGKEAGSEPAPEQESTEATPAE [FIP1L1]
solubility in G1/S (log2) [1]: -0.594
melting temperature ([2]; cell cycle stage: G1/S): 48.8 °C
melting temperature ([2]; cell cycle stage: mitosis): 49.9 °C
solubility change mitosis (log2) [3]: 0.265
thermal stability score [4, 5]: 0.669
thermal stability score ([4]; cell cycle stage: mitosis): 2.71

MWGDSRPANRTGPFRGSQEERFAPGWNRDYPPPPLKSHAQERHSGNFPGRDSLPFDFQGHSGPPFANVEEHSFSYGARDGPHGDYRGGEGPGHDFRGGDFSSSDFQSRDSSQLDFRGRDIHSGDFRDREGPPMDYRGGDGTSMDYRGREAPHMNYRDRDAHAVDFRGRDAPPSDFRGRGTYDLDFRGRDGSHADFRGRDLSDLDFRAREQSRSDFRNRDVSDLDFRDKDGTQVDFRGRGSGTTDLDFRDRDTPHSDFRGRHRSRTDQDFRGREMGSCMEFKDREMPPVDPNILDYIQPSTQDREHSGMNVNRREESTHDHTIERPAFGIQKGEFEHSETREGETQGVAFEHESPADFQNSQSPVQDQDKSQLSGREEQSSDAGLFKEEGGLDFLGRQDTDYRSMEYRDVDHRLPGSQMFGYGQSKSFPEGKTARDAQRDLQDQDYRTGPSEEKPSRLIRLSGVPEDATKEEILNAFRTPDGMPVKNLQLKEYNTGYDYGYVCVEFSLLEDAIGCMEANQGTLMIQDKEVTLEYVSSLDFWYCKRCKANIGGHRSSCSFCKNPREVTEAKQELITYPQPQKTSIPAPLEKQPNQPLRPADKEPEPRKREEGQESRLGHQKREAERYLPPSRREGPTFRRDRERESWSGETRQDGESKTIMLKRIYRSTPPEVIVEVLEPYVRLTTANVRIIKNRTGPMGHTYGFIDLDSHAEALRVVKILQNLDPPFSIDGKMVAVNLATGKRRNDSGDHSDHMHYYQGKKYFRDRRGGGRNSDWSSDTNRQGQQSSSDCYIYDSATGYYYDPLAGTYYDPNTQQEVYVPQDPGLPEEEEIKEKKPTSQGKSSSKKEMSKRDGKEKKDRGVTRFQENASEGKAPAEDVFKKPLPPTVKKEESPPPPKVVNPLIGLLGEYGGDSDYEEEEEEEQTPPPQPRTAQPQKREEQTKKENEEDKLTDWNKLACLLCRRQFPNKEVLIKHQQLSDLHKQNLEIHRKIKQSEQELAYLERREREGKFKGRGNDRREKLQSFDSPERKRIKYSRETDSDRKLVDKEDIDTSSKGGCVQQATGWRKGTGLGYGHPGLASSEEAEGRMRGPSVGASGRTSKRQSNETYRDAVRRVMFARYKELD [RBM6]
solubility in G1/S (log2) [1]: -0.757
melting temperature ([2]; cell cycle stage: G1/S): 48.2 °C
melting temperature ([2]; cell cycle stage: mitosis): 50 °C
solubility change mitosis (log2) [3]: 0.361
thermal stability score [4, 5]: 1.19
thermal stability score ([4]; cell cycle stage: mitosis): 1.84

MPFDFRRFDIYRKVPKDLTQPTYTGAIISICCCLFILFLFLSELTGFITTEVVNELYVDDPDKDSGGKIDVSLNISLPNLHCELVGLDIQDEMGRHEVGHIDNSMKIPLNNGAGCRFEGQFSINKVPGNFHVSTHSATAQPQNPDMTHVIHKLSFGDTLQVQNIHGAFNALGGADRLTSNPLASHDYILKIVPTVYEDKSGKQRYSYQYTVANKEYVAYSHTGRIIPAIWFRYDLSPITVKYTERRQPLYRFITTICAIIGGTFTVAGILDSCIFTASEAWKKIQLGKMH [ERGIC1]
solubility in G1/S (log2) [1]: 0.18
melting temperature ([2]; cell cycle stage: G1/S): 55.2 °C
melting temperature ([2]; cell cycle stage: mitosis): 55.6 °C
solubility change mitosis (log2) [3]: -0.178
thermal stability score [4, 5]: -0.418
thermal stability score ([4]; cell cycle stage: mitosis): -0.585

SRRM2
solubility in G1/S (log2) [1]: -0.81
melting temperature ([2]; cell cycle stage: G1/S): 48.3 °C
melting temperature ([2]; cell cycle stage: mitosis): 50.2 °C
solubility change mitosis (log2) [3]: 0.682
thermal stability score [4, 5]: -1.58
thermal stability score ([4]; cell cycle stage: mitosis): 5.67

MARKRAAGGEPRGRELRSQKSKAKSKARREEEEEDAFEDEKPPKKSLLSKVSQGKRKRGCSHPGGSADGPAKKKVAKVTVKSENLKVIKDEALSDGDDLRDFPSDLKKAHHLKRGATMNEDSNEEEEESENDWEEVEELSEPVLGDVRESTAFSRSLLPVKPVEIEIETPEQAKTRERSEKIKLEFETYLRRAMKRFNKGVHEDTHKVHLLCLLANGFYRNNICSQPDLHAIGLSIIPARFTRVLPRDVDTYYLSNLVKWFIGTFTVNAELSASEQDNLQTTLERRFAIYSARDDEELVHIFLLILRALQLLTRLVLSLQPIPLKSATAKGKKPSKERLTADPGGSSETSSQVLENHTKPKTSKGTKQEETFAKGTCRPSAKGKRNKGGRKKRSKPSSSEEDEGPGDKQEKATQRRPHGRERRVASRVSYKEESGSDEAGSGSDFELSSGEASDPSDEDSEPGPPKQRKAPAPQRTKAGSKSASRTHRGSHRKDPSLPAASSSSSSSKRGKKMCSDGEKAEKRSIAGIDQWLEVFCEQEEKWVCVDCVHGVVGQPLTCYKYATKPMTYVVGIDSDGWVRDVTQRYDPVWMTVTRKCRVDAEWWAETLRPYQSPFMDREKKEDLEFQAKHMDQPLPTAIGLYKNHPLYALKRHLLKYEAIYPETAAILGYCRGEAVYSRDCVHTLHSRDTWLKKARVVRLGEVPYKMVKGFSNRARKARLAEPQLREENDLGLFGYWQTEEYQPPVAVDGKVPRNEFGNVYLFLPSMMPIGCVQLNLPNLHRVARKLDIDCVQAITGFDFHGGYSHPVTDGYIVCEEFKDVLLTAWENEQAVIERKEKEKKEKRALGNWKLLAKGLLIRERLKRRYGPKSEAAAPHTDAGGGLSSDEEEGTSSQAEAARILAASWPQNREDEEKQKLKGGPKKTKREKKAAASHLFPFEQL [XPC]
solubility in G1/S (log2) [1]: -0.919
melting temperature ([2]; cell cycle stage: G1/S): 47.7 °C
melting temperature ([2]; cell cycle stage: mitosis): 48.4 °C
solubility change mitosis (log2) [3]: 0.43
thermal stability score [4, 5]: 0.959
thermal stability score ([4]; cell cycle stage: mitosis): 2.74

MEQWRQCGRWLIDCKVLPPNHRVVWPSAVVFDLAQALRDGVLLCQLLHNLSPGSIDLKDINFRPQMSQFLCLKNIRTFLKVCHDKFGLRNSELFDPFDLFDVRDFGKVISAVSRLSLHSIAQNKGIRPFPSEETTENDDDVYRSLEELADEHDLGEDIYDCVPCEDGGDDIYEDIIKVEVQQPMIRYMQKMGMTEDDKRNCCLLEIQETEAKYYRTLEDIEKNYMSPLRLVLSPADMAAVFINLEDLIKVHHSFLRAIDVSVMVGGSTLAKVFLDFKERLLIYGEYCSHMEHAQNTLNQLLASREDFRQKVEECTLKVQDGKFKLQDLLVVPMQRVLKYHLLLKELLSHSAERPERQQLKEALEAMQDLAMYINEVKRDKETLRKISEFQSSIENLQVKLEEFGRPKIDGELKVRSIVNHTKQDRYLFLFDKVVIVCKRKGYSYELKEIIELLFHKMTDDPMNNKDVKKSHGKMWSYGFYLIHLQGKQGFQFFCKTEDMKRKWMEQFEMAMSNIKPDKANANHHSFQMYTFDKTTNCKACKMFLRGTFYQGYMCTKCGVGAHKECLEVIPPCKFTSPADLDASGAGPGPKMVAMQNYHGNPAPPGKPVLTFQTGDVLELLRGDPESPWWEGRLVQTRKSGYFPSSSVKPCPVDGRPPISRPPSREIDYTAYPWFAGNMERQQTDNLLKSHASGTYLIRERPAEAERFAISIKFNDEVKHIKVVEKDNWIHITEAKKFDSLLELVEYYQCHSLKESFKQLDTTLKYPYKSRERSASRASSRSPASCASYNFSFLSPQGLSFASQGPSAPFWSVFTPRVIGTAVARYNFAARDMRELSLREGDVVRIYSRIGGDQGWWKGETNGRIGWFPSTYVEEEGIQ [VAV2]
solubility in G1/S (log2) [1]: -0.0231
melting temperature ([2]; cell cycle stage: G1/S): 48.7 °C
melting temperature ([2]; cell cycle stage: mitosis): 48.9 °C
solubility change mitosis (log2) [3]: -0.269
thermal stability score [4, 5]: 0.0861
thermal stability score ([4]; cell cycle stage: mitosis): 1.36

MVGSALRRGAHAYVYLVSKASHISRGHQHQAWGSRPPAAECATQRAPGSVVELLGKSYPQDDHSNLTRKVLTRVGRNLHNQQHHPLWLIKERVKEHFYKQYVGRFGTPLFSVYDNLSPVVTTWQNFDSLLIPADHPSRKKGDNYYLNRTHMLRAHTSAHQWDLLHAGLDAFLVVGDVYRRDQIDSQHYPIFHQLEAVRLFSKHELFAGIKDGESLQLFEQSSRSAHKQETHTMEAVKLVEFDLKQTLTRLMAHLFGDELEIRWVDCYFPFTHPSFEMEINFHGEWLEVLGCGVMEQQLVNSAGAQDRIGWAFGLGLERLAMILYDIPDIRLFWCEDERFLKQFCVSNINQKVKFQPLSKYPAVINDISFWLPSENYAENDFYDLVRTIGGDLVEKVDLIDKFVHPKTHKTSHCYRITYRHMERTLSQREVRHIHQALQEAAVQLLGVEGRF [FARS2]
solubility in G1/S (log2) [1]: -0.187
melting temperature ([2]; cell cycle stage: G1/S): 49.7 °C
melting temperature ([2]; cell cycle stage: mitosis): 49.5 °C
solubility change mitosis (log2) [3]: -0.0528
thermal stability score [4, 5]: 0.911
thermal stability score ([4]; cell cycle stage: mitosis): 1.74

MPQYQTWEEFSRAAEKLYLADPMKARVVLKYRHSDGNLCVKVTDDLVCLVYKTDQAQDVKKIEKFHSQLMRLMVAKEARNVTMETE [SRP9]
solubility in G1/S (log2) [1]: -0.607
melting temperature ([2]; cell cycle stage: G1/S): 53.5 °C
melting temperature ([2]; cell cycle stage: mitosis): 52.1 °C
solubility change mitosis (log2) [3]: 0.394
thermal stability score [4, 5]: -2.84
thermal stability score ([4]; cell cycle stage: mitosis): -5.71

— the supplement of paper PMC5998384
